Results: US20230279077A1
Numbering of substitutions follows the chain as printed.

Tests used:
[1] = molecular target: HSV-1 glycoprotein D-Fc fusion protein (HSV-1) (UniProt Q69091); experiment: phage ELISA, glycoprotein D coated, anti-M13 HRP; well D2
[2] = molecular target: HSV-1 glycoprotein D-Fc fusion protein (HSV-1) (UniProt Q69091); experiment: SPR single-cycle kinetics, G-Fc captured on anti-human IgG, 25 C, 1:1 Binding fit; item G19, curve Fc=2-1; Table 6 calls the fit to the 1:1 model poor
[3] = molecular target: HSV-1 glycoprotein D-Fc fusion protein (HSV-1) (UniProt Q69091); experiment: SPR single-cycle kinetics, G-Fc captured on anti-human IgG, 25 C, 1:1 Binding fit; item G19 2, curve Fc=3-1; Table 6 calls the fit to the 1:1 model poor
[4] = molecular target: HSV-1 glycoprotein D-Fc fusion protein (HSV-1) (UniProt Q69091); experiment: phage ELISA, glycoprotein D coated, anti-M13 HRP; well C3
[5] = molecular target: HSV-1 glycoprotein D-Fc fusion protein (HSV-1) (UniProt Q69091); experiment: phage ELISA, glycoprotein D coated, anti-M13 HRP; well D3
[6] = molecular target: HSV-1 glycoprotein D-Fc fusion protein (HSV-1) (UniProt Q69091); experiment: phage ELISA, glycoprotein D coated, anti-M13 HRP; well F3
[7] = molecular target: HSV-1 glycoprotein D-Fc fusion protein (HSV-1) (UniProt Q69091); experiment: phage ELISA, glycoprotein D coated, anti-M13 HRP; well H3
[8] = molecular target: HSV-1 glycoprotein D-Fc fusion protein (HSV-1) (UniProt Q69091); experiment: phage ELISA, glycoprotein D coated, anti-M13 HRP; well B4
[9] = molecular target: HSV-1 glycoprotein D-Fc fusion protein (HSV-1) (UniProt Q69091); experiment: phage ELISA, glycoprotein D coated, anti-M13 HRP; well D1
[10] = molecular target: HSV-1 glycoprotein D-Fc fusion protein (HSV-1) (UniProt Q69091); experiment: phage ELISA, glycoprotein D coated, anti-M13 HRP; well C5
[11] = molecular target: HSV-1 glycoprotein D-Fc fusion protein (HSV-1) (UniProt Q69091); experiment: phage ELISA, glycoprotein D coated, anti-M13 HRP; well D5
[12] = molecular target: HSV-1 glycoprotein D-Fc fusion protein (HSV-1) (UniProt Q69091); experiment: phage ELISA, glycoprotein D coated, anti-M13 HRP; well H5
[13] = molecular target: HSV-1 glycoprotein D-Fc fusion protein (HSV-1) (UniProt Q69091); experiment: SPR Biacore T200, single cycle kinetics, G-Fc captured on anti-human IgG, 1:1 fit
[14] = molecular target: HSV-1 glycoprotein D-Fc fusion protein (HSV-1) (UniProt Q69091); experiment: SPR Biacore T200, single cycle kinetics, G-Fc captured on anti-human IgG, 1:1 fit, second run
[15] = molecular target: HSV-1 glycoprotein D-Fc fusion protein (HSV-1) (UniProt Q69091); experiment: phage ELISA, glycoprotein D coated, anti-M13 HRP; well A6
[16] = molecular target: HSV-1 glycoprotein D-Fc fusion protein (HSV-1) (UniProt Q69091); experiment: phage ELISA, glycoprotein D coated, anti-M13 HRP; well C6
[17] = molecular target: HSV-1 glycoprotein D-Fc fusion protein (HSV-1) (UniProt Q69091); experiment: phage ELISA, glycoprotein D coated, anti-M13 HRP; well D6
[18] = molecular target: HSV-1 glycoprotein D-Fc fusion protein (HSV-1) (UniProt Q69091); experiment: SPR, G-Fc captured on anti-human IgG; low end tied to G44 by Table 6
[19] = molecular target: HSV-1 glycoprotein D-Fc fusion protein (HSV-1) (UniProt Q69091); experiment: phage ELISA, glycoprotein D coated, anti-M13 HRP; well F1
[20] = molecular target: HSV-1 glycoprotein D-Fc fusion protein (HSV-1) (UniProt Q69091); experiment: phage ELISA, glycoprotein D coated, anti-M13 HRP; well C8
[21] = molecular target: HSV-1 glycoprotein D-Fc fusion protein (HSV-1) (UniProt Q69091); experiment: phage ELISA, glycoprotein D coated, anti-M13 HRP; well H8
[22] = molecular target: HSV-1 glycoprotein D-Fc fusion protein (HSV-1) (UniProt Q69091); experiment: phage ELISA, glycoprotein D coated, anti-M13 HRP; well H1
[23] = molecular target: HSV-1 glycoprotein D-Fc fusion protein (HSV-1) (UniProt Q69091); experiment: phage ELISA, glycoprotein D coated, anti-M13 HRP; well C10
[24] = molecular target: HSV-1 glycoprotein D-Fc fusion protein (HSV-1) (UniProt Q69091); experiment: SPR, G-Fc captured on anti-human IgG
[25] = molecular target: HSV-1 glycoprotein D-Fc fusion protein (HSV-1) (UniProt Q69091); experiment: SPR, G-Fc captured on anti-human IgG; high end tied to G75 by Table 6
[26] = molecular target: HSV-1 glycoprotein D-Fc fusion protein (HSV-1) (UniProt Q69091); experiment: phage ELISA, glycoprotein D coated, anti-M13 HRP; well E10
[27] = molecular target: HSV-1 glycoprotein D-Fc fusion protein (HSV-1) (UniProt Q69091); experiment: SPR, G-Fc captured on anti-human IgG; high end tied to G77 by Table 6
[28] = molecular target: HSV-1 glycoprotein D-Fc fusion protein (HSV-1) (UniProt Q69091); experiment: phage ELISA, glycoprotein D coated, anti-M13 HRP; well G11
[29] = molecular target: HSV-1 glycoprotein D-Fc fusion protein (HSV-1) (UniProt Q69091); experiment: phage ELISA, glycoprotein D coated, anti-M13 HRP; well B2

B1: 3G-12 (VHH)
VHH: DVQLVESGGGLVQPGGSLRLSCAASGFSFSFKNYAMTWVRQAPGKGLEWVSTMSGGGDETKYADSVKGRFTISRDNTKNTLYLQMNSLKPEDTAVYYCAKGWITTDRFTNTPRGQGTQVTVSS
A450 nm [1]: 1.01

B2: 3-G-19_M13R (VHH, not shown: small tags and cut ends)
VHH: QVKLEESGGGLVQPGGSLRLSCTASGFSFAFKDYAMSWVRQAPGKGLEWVSTMSGGGGDTKYADSVKGRFTISRDNNKNTVYLQMNSLKPEDTAVYYCAKGWITTNQFADAPRGQGTQVTVSS
Kd [2]: 1.73 nM | koff [2]: 0.000368 s⁻¹ | kon [2]: 213000 M⁻¹ s⁻¹ | Kd [3]: 1.71 nM | koff [3]: 0.000368 s⁻¹ | kon [3]: 216000 M⁻¹ s⁻¹ | A450 nm [4]: 1.07

B3: 3G-20 (VHH)
VHH: EVQLVESGGGLVQPGGSLTLSCAASGFSFSFENYAMSWVRQAPGKGLEWVSTMSGGGGDIKYADSVKGRFTISRDNAKNTLYLQMNNLKPEDSAVYYCAKGWITTNRLTNTPRGQGTQVTVSS
A450 nm [5]: 1.18

B4: 3G-22 (VHH)
VHH: B3 VHH with E1Q, L108F, T111I
A450 nm [6]: 1.14

B5: 3G-24 (VHH)
VHH: B2 VHH with V12A, D33N, N77A, N106D, D110S, Q115H
A450 nm [7]: 1.09

B6: 3G-26 (VHH)
VHH: B2 VHH with K3Q, E5V, D33N, N77A, K100E, N106D, D110S
A450 nm [8]: 0.892

B7: 3G-4 (VHH)
VHH: B1 VHH with D1Q, Q3K, V5E, T37S
A450 nm [9]: 1.09

B8: 3G-35 (VHH)
VHH: B2 VHH with Q1D, K3Q, E5V, E6D, T23S, F29S, D33N, T105N, D110S
A450 nm [10]: 1.13

B9: 3G-36 (VHH)
VHH: B3 VHH with E1Q, R107Q, L108F
A450 nm [11]: 0.934

B10: 3G-40 (VHH)
VHH: QVKLEESGGGLAQPGGSLRLSCAASGFSFSFKNYAMSWVRQAPGKGLEWVSTMSGGGGDIKYADSVKGRFTISRDNAKNTLYLQMNSLKPEDTAVYYCAKGWIATDQFTNTPRGQGTQVTVSS
A450 nm [12]: 1.09

B11: 3-G-41_M13R (VHH, not shown: small tags and cut ends)
VHH: B10 VHH with K3Q, E5V, A12V, A104T
Kd [13]: 0.096 nM | koff [13]: 0.000274 s⁻¹ | kon [13]: 2.85e+06 M⁻¹ s⁻¹ | Kd [14]: 0.092 nM | koff [14]: 0.000279 s⁻¹ | kon [14]: 3.05e+06 M⁻¹ s⁻¹ | A450 nm [15]: 0.805

B12: 3G-43 (VHH)
VHH: B2 VHH with Q1A, K3Q, E5V, T23S, D33N, K100E, T105N, D110S
A450 nm [16]: 1.19

B13: 3-G-44_M13R (VHH, not shown: small tags and cut ends)
VHH: B2 VHH with K3Q, E5V, D33N, N77A, T80A, N106D, D110T
Kd [13]: 0.051 nM | koff [13]: 0.000281 s⁻¹ | kon [13]: 5.47e+06 M⁻¹ s⁻¹ | Kd [14]: 0.048 nM | koff [14]: 0.000299 s⁻¹ | kon [14]: 6.2e+06 M⁻¹ s⁻¹ | A450 nm [17]: 1.05 | Kd [18]: 0.05 nM

B14: 3G-6 (VHH)
VHH: B1 VHH with D1Q, A23T, T37S, D58G, E59D, T77A, N110D
A450 nm [19]: 0.951

B15: 3G-59 (VHH)
VHH: B3 VHH with E1Q, T105A, L108F
A450 nm [20]: 1.16

B16: 3G-64 (VHH)
VHH: B1 VHH with D1Q, T37S, G56S, D58G, E59D, T77A, N110D, T111A
A450 nm [21]: 0.985

B17: 3G-8 (VHH)
VHH: B3 VHH with E1H, L108F
A450 nm [22]: 0.933

B18: 3-G-75_M13R (VHH, not shown: small tags and cut ends)
VHH: QVKLEESGGGVVQDGGSLRLSCAAIEQFFTTNAMAWFRQAPGKERELVAATDWSGQSTSYADSVKGRFTISRDTAKNVMYLQMNILHTEDTAVYYCARAPGRVLLTSDLESYTIWGQGTQVTVSS
Kd [13]: 4.02 nM | koff [13]: 0.0139 s⁻¹ | kon [13]: 3.47e+06 M⁻¹ s⁻¹ | A450 nm [23]: 1.13 | Kd [14]: 3.86 nM | koff [14]: 0.0152 s⁻¹ | kon [14]: 3.93e+06 M⁻¹ s⁻¹ | Kd [24]: 4 nM | Kd [25]: 4 nM

B19: 3-G-77_M13R (VHH, not shown: small tags and cut ends)
VHH: B2 VHH with K3Q, E5V, T23S, D33N, T105N, D110F
Kd [13]: 0.183 nM | koff [13]: 0.00093 s⁻¹ | kon [13]: 5.07e+06 M⁻¹ s⁻¹ | A450 nm [26]: 1.25 | Kd [14]: 0.18 nM | koff [14]: 0.00102 s⁻¹ | kon [14]: 5.67e+06 M⁻¹ s⁻¹ | Kd [27]: 0.2 nM

B20: 3G-87 (VHH)
VHH: B1 VHH with K32E, T37S, D58G, E59D, T77A, T80M, P112L
A450 nm [28]: 1.13

B21: 3G-10 (VHH)
VHH: QVQLVESGGGLVQPGGSLKLSCASSESIFAFKNYAMSWVRQAPGKGLEWVSTMSGGGGDTKYADSVKGRFTISRDNAKNTVYLQMNSLKPEDTAVYYCAKGWITTDQFASAPRGHGTQVTVSS
A450 nm [29]: 1.14
